In IntAct's records for PubMed 20185822:

B1: Autoimmune regulator (Homo sapiens), O43918 (parent)
chain: MATDAALRRLLRLHRTEIAVAVDSAFPLLHALADHDVVPEDKFQETLHLKEKEGCPQAFHALLSWLLTQDSTAILDFWRVLFKDYNLERYGRLQPILDSFPKDVDLSQPRKGRKPPAVPKALVPPPRLPTKRKASEEARAAAPAALTPRGTASPGSQLKAKPPKKPESSAEQQRLPLGNGIQTMSASVQRAVAMSSGDVPGARGAVEGILIQQVFESGGSKKCIQVGGEFYTPSKFEDSGSGKNKARSSSGPKPLVRAKGAQGAAPGGGEARLGQQGSVPAPLALPSDPQLHQKNEDECAVCRDGGELICCDGCPRAFHLACLSPPLREIPSGTWRCSSCLQATVQEVQPRAEEPRPQEPPVETPLPPGLRSAGEEVRGPPGEPLAGMDTTLVYKHLPAPPSAAPLPGLDSSALHPLLCVGPEGQQNLAPGARCGVCGDGTDVLRCTHCAAAFHWRCHFPAGTSRPGTGLRCRSCSGDVTPAPVEGVLAPSPARLAPGPAKDDTASHEPALHRDDLESLLSEHTFDGILQWAIQSMARPAAPFPS

Variants of: B1
Conditions: with daxx_human DAXX

effect of a mutation on the interaction	Variant
decreasing interaction	W78R
